Experimental data from US7125850B2, “Methods of identifying inhibitors of GADD45 polypeptide activity, and inhibitors of such activity” (The United States of America as represented by the …, priority 1999, dated 2006).
One block for each molecule: values may come before it.

Legend:
RKO cells = assay: Flow cytometry cell cycle analysis of RKO cells after base-damaging agent; assay type: cell-based, human; settings: parental RKO cells, 25 μg/ml
Procedure: Using flow cytometry analysis, cell cycle distributions of unsynchronized cell populations were performed (for flow cytometry analysis, cells were harvested with 3.5 mM EDTA-PBS buffer, fixed with 70% ethanol for at least 1 hr at 4° C., treated with 20 μg/ml RNase A for 30 min, stained with 60 μg/ml of propidium iodide (PI) for DNA content, and analyzed for cell cycle status with a FACScan cell sorter (Becton Dickinson). At least 10,000 cells were collected. The cell cycle profiles were calculated using the CellQuest and ModFit Lt software. Experiments were repeated at least twice.) The parental human RKO colon carcinoma cells and three isogenic RKO-derived clones stably expressing antisense GADD45 mRNA (discussed above) were analyzed.
Cells were treated with base-damaging agents: either 6.3 Gy of γ-radiation; 5 J/m^2 of UV; or, 25 μg/ml of the base-damaging alkylating agent MMS. These doses for MMS and UV radiation were selected because they were not toxic to these cells in a short-term growth assay. […] The cell cycle status of the cells was then analyzed and quantitated by flow cytometric analysis profile (as described above). […] IR caused a significant accumulation in G2/M with concomitant reductions in G1 and S in all four cell lines.

Cdc2 = Cdc2 (Homo sapiens, UniProt P06493); assay: Co-immunoprecipitation of Myc-tagged GADD45 with Cdc2 antibody in transfected RKO cells; assay type: cell-based; parameters: endogenous in cells; host or cells: RKO (human colon carcinoma)
From the text: In order to determine if GADD45 associates with Cdc2 in vivo, RKO cells were transfected with Myc-epitope-tagged expression vectors. To construct the Myc-tag-GADD45 expression vector, internal GADD45 primers were designed to contain an in-frame 5′ NdeI site and were used to amplify the desired regions from a human GADD45 cDNA construct. PCR products were cloned into the pcrII vector using the TA Kit (Invitrogen, Carlsbad, Calif.) and sequenced prior to subcloning into XhoI/XbaI cut pCS2MT. This allowed expression of the GADD45 constructs tagged with 6 copies of the Myc epitope recognized by the monoclonal 9E10 antibody at the amino-terminus (Rupp (1994) Genes Dev. 8:1311–1323; Turner (1994) Genes Dev. 8:1434–1447).
For mammalian cell transfection, 10^6 RKO cells were seeded onto 100 mm plates the day before transfection. […]
Lysates from cells expressing Myc-tag-GADD45 fusion protein or unfused Myc-tag were immunoprecipitated with antibodies to c-myc and Cdc2 (both from Santa Cruz Biotech.). […] Following immunoblot analysis, the Myc-tagged GADD45 protein was detected in both the cell lysate and after immunoprecipitation with anti-Myc antibody. […] After immunoprecipitation with Cdc2 antibody, Myc-tagged GADD45 was also detected. No GADD45 was detected with (i.e., was co-immunoprecipitated by) the control antibodies. […]

cellular Cdc2 = target: T1, cellular Cdc2 (Homo sapiens, UniProt P06493); assay: GST pull-down from RKO cell lysate, immunoblot for Cdc2; assay type: binding; settings: 100 ng protein, 1 mg RKO cellular protein
T1 construct: GST-GADD45 fusion protein were incubated with one mg of RKO cellular protein; endogenous in cells; host or cells: RKO (human colon carcinoma)
From the text: For these experiments, a recombinant glutathione-S-transferase (GST)/GADD45 fusion protein was constructed. The GADD45 insert was PCR amplified from pHul45B2 using the following primers: (SEQ ID NO:3) 5′[…] 3′ and (SEQ ID NO:4) 5′[…] 3′. Products were cloned into a pcrII vector using the TA cloning kit (Invitrogen, San Diego, Calif.). A representative clone was confirmed by sequencing. The selected insert was removed by XhoI and NotI digestion, gel purified using the Wizard DNA Purification Kit (Promega, Madison, Wis.), and ligated into the XhoI/ NotI digested pGEX4T vector (Pharmacia, Piscataway, N.J.). GST-GADD45 fusion protein induction was prepared from freshly transformed BL21 bacterial cells (Novagen). 150 ml of overnight culture was diluted into 1L of LB with ampicillin and grown at 37° C. to late growth phase (OD600 was approximately 0.8). […]
To detect binding of cellular Cdc2 to GST-tagged GADD45, 100 ng of GST or GST-GADD45 fusion protein were incubated with one mg of RKO cellular protein for 4 hr at […]. […] Antibody was detected by a chemiluminescence system in accordance with the instructions of the manufacturer (Amersham, Buckinghamshire, England)
(§1) GST-GADD45 fusion protein or GST alone, which were linked to Sepharose beads, were incubated with cellular lysates, isolated, and analyzed by immunoblotting, as described above.

cyclin B1 = target: T2, cyclin B1 (Homo sapiens, UniProt P14635); assay: GST pull-down from RKO cell lysate, immunoblot for cyclin B1; assay type: binding; settings: 100 ng protein, 1 mg RKO cellular protein
T2 construct: endogenous in cells; host or cells: RKO (human colon carcinoma)
Procedure: To detect binding of cellular Cdc2 to GST-tagged GADD45, 100 ng of GST or GST-GADD45 fusion protein were incubated with one mg of RKO cellular protein for 4 hr at […]. Complexes were then washed three times with lysis buffer and loaded onto a 12% SDS-PAGE gel. Following electrophoresis, the proteins were electrophoretically transferred to Immobin membranes (Millipore, Bedford, Mass.). The membranes were blocked for 30 min in 5% nonfat milk and then incubated with anti-Cdc2 (Santa Cruz Biotechnology, Santa Cruz, Calif.) and anti-cyclin B1 (Pharmingen, San Diego, Calif.) monoclonal mouse antibodies. Antibody was detected by a chemiluminescence system in accordance with the instructions of the manufacturer (Amersham, Buckinghamshire, England)
as §1

Cdk2 = target: T3, Cdk2 (Homo sapiens, UniProt P24941); assay: GST pull-down from RKO cell lysate, immunoblot for Cdk2; assay type: binding
T3 construct: GST-GADD45 fusion protein were incubated with one mg of RKO cellular protein; endogenous in cells; host or cells: RKO (human colon carcinoma)

T2 sequence (P14635 whole entry): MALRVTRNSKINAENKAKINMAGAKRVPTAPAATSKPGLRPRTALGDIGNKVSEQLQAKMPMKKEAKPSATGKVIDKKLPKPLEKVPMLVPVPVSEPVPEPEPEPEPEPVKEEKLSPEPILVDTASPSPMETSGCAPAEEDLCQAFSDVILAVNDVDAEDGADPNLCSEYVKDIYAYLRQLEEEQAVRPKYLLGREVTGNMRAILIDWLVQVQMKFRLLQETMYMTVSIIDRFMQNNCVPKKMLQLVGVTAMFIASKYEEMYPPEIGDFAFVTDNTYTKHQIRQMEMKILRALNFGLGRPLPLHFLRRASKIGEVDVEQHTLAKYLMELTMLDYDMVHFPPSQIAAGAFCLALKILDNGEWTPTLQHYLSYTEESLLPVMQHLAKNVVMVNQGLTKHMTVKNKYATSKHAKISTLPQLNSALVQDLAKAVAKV
Cdc2, sequence (P06493 whole entry): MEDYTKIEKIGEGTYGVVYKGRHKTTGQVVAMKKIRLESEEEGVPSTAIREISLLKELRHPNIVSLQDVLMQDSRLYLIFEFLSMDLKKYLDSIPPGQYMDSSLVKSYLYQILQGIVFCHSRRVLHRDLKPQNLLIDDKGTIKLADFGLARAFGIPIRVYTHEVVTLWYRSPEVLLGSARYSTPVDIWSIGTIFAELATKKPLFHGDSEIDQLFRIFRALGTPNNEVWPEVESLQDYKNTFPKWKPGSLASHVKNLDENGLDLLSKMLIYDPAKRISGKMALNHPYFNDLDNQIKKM
T1 sequence (P06493 whole entry, the tested form may be a part): as the sequence (P06493 whole entry) above

Molecule: COS(C)(=O)=O [MMS, methyl methanesulfonate]
cell cycle accumulation (RKO cells): accumulated in S and G2/M

detection after immunoprecipitation with Cdc2 antibody (Cdc2): also detected
B1: Myc-tagged GADD45: GADD45 tagged with 6 copies of the Myc epitope, expressed in RKO cells (protein)
chain: MTLEEFSAGEQKTERMDKVGDALEEVLSKALSQRTITVGVYEAAKLLNVDPDNVVLCLLAADEDDDRDVALQIHFTLIQAFCCENDINILRVSNPGRLAELLLLETDAGPAASEGAEQPPDLHCVLVTNPHSSQWKDPALSQLICFCRESRYMDQWVPVINLPER
modifications: left off: small tags and cut ends

association with cellular Cdc2 (cellular Cdc2): found to associate
association with cyclin B1 (cyclin B1): did not associate
association with Cdk2 (Cdk2): No association
B2: GST-GADD45: recombinant glutathione-S-transferase (GST)/GADD45 fusion protein on Sepharose beads (protein)
chain: TLEEFSAGEQKTERMDKVGDALEEVLSKALSQRTITVGVYEAAKLLNVDPDNVVLCLLAADEDDDRDVALQIHFTLIQAFCCENDINILRVSNPGRLAELLLLETDAGPAASEGAEQPPDLHCVLVTNPHSSQWKDPALSQLICFCRESRYMDQWVPVINLPER
modifications: left off: a dimerising Fc or GST
notes: recombinant glutathione-S-transferase (GST)/GADD45 fusion protein on Sepharose beads
